From the RNAGym collection of RNA variant scans (doi:10.7554/elife.80360)

B1: CPEB3 Ribozyme (parent)
chain: GGGGGCCACAGCAGAAGCGUUCACGUCGCGGCCCCUGUCAGAUUCUGGUGAAUCUGCGAAUUCUGCUGU

Variants of: B1
Assay: self-cleavage, relative activity (ratio to wild type); higher = more cleavage; co-transcriptional
Variant G28A U43A has a self-cleavage of 0.156. With G28A U43C the self-cleavage was 0.219. Variant G28A U43G has a self-cleavage of 0.0959. Work on G28U G30A yielded a self-cleavage of 0.14. G28U G30C showed a self-cleavage of 0.166. In the case of G28U G30U, the self-cleavage is reported as 0.183. In the case of G28U C34A, the self-cleavage is reported as 0.181. G28A A51U gave a self-cleavage of 0.183. Work on G28A A51C yielded a self-cleavage of 0.234. C27U C34A showed a self-cleavage of 0.201. With C27U C34U the self-cleavage was 0.415. C27U G58C showed a self-cleavage of 0.351. For C27U G58U, the self-cleavage was 0.526. C27U G58A showed a self-cleavage of 0.237. Variant G28U C39G has a self-cleavage of 0.206. G28U C39A gave a self-cleavage of 0.103. C27G G50A showed a self-cleavage of 0.17. C27G G50C gave a self-cleavage of 0.141. C27G G50U gave a self-cleavage of 0.175. C27U U44C gave a self-cleavage of 0.15. C27U U44A gave a self-cleavage of 0.292. C27U U44G showed a self-cleavage of 0.198. Variant C27U G31A has a self-cleavage of 0.266. With C27U G31U the self-cleavage was 0.192. In the case of G28U C66U, the self-cleavage is reported as 0.168. G28U C66G gave a self-cleavage of 0.16. Variant G28U C66A has a self-cleavage of 0.153. C27G G47C showed a self-cleavage of 0.226. In the case of G28A A60U, the self-cleavage is reported as 0.199. Work on G28A A60C yielded a self-cleavage of 0.197. In the case of G28A A60G, the self-cleavage is reported as 0.168. In the case of G28U C29U, the self-cleavage is reported as 0.174. G28U C29A showed a self-cleavage of 0.142. G28C C33U showed a self-cleavage of 0.165. With G28C C33A the self-cleavage was 0.115. In the case of C27U U61C, the self-cleavage is reported as 0.14. Work on C27U G50U yielded a self-cleavage of 0.396. C27U G50A showed a self-cleavage of 0.371. For C27U G30U, the self-cleavage was 0.181. With C27U G30A the self-cleavage was 0.224. Work on C27U G30C yielded a self-cleavage of 0.164. G28C U44A showed a self-cleavage of 0.157. With G28C U44C the self-cleavage was 0.223. In the case of G28A U46C, the self-cleavage is reported as 0.192. Work on G28A U46G yielded a self-cleavage of 0.146. G28A U46A showed a self-cleavage of 0.184. Work on G28U C33A yielded a self-cleavage of 0.21. With G28U C33G the self-cleavage was 0.196. C27G G31C gave a self-cleavage of 0.174. With G28C C34G the self-cleavage was 0.245. With G28C C34U the self-cleavage was 0.136. For G28A A52G, the self-cleavage was 0.234. C27G U67C gave a self-cleavage of 0.247. With C27G U67G the self-cleavage was 0.255. In the case of C27G U67A, the self-cleavage is reported as 0.166. Work on G28A U49G yielded a self-cleavage of 0.22. With G28A U49C the self-cleavage was 0.238. Work on C27U C54G yielded a self-cleavage of 0.195. Variant C27U C54A has a self-cleavage of 0.18. With C27U C54U the self-cleavage was 0.328. G28C C54U showed a self-cleavage of 0.218. Variant G28C C54G has a self-cleavage of 0.155. G28C G58C gave a self-cleavage of 0.158. C27G U64A showed a self-cleavage of 0.215. For C27G U64G, the self-cleavage was 0.25. With G28A C35U the self-cleavage was 0.203. In the case of G28A C35A, the self-cleavage is reported as 0.17. Variant G28A U67A has a self-cleavage of 0.202. G28A U67C showed a self-cleavage of 0.307. With G28A U67G the self-cleavage was 0.232. Work on G28C C66U yielded a self-cleavage of 0.211. G28C C66A gave a self-cleavage of 0.163. In the case of G28C C66G, the self-cleavage is reported as 0.141. C27U C45G gave a self-cleavage of 0.243. Variant G28A U69C has a self-cleavage of 0.412. With G28A U69A the self-cleavage was 0.342. G28A U69G showed a self-cleavage of 0.357. In the case of C27G U36A, the self-cleavage is reported as 0.18. With G28A A59U the self-cleavage was 0.198. With C27G U55G the self-cleavage was 0.159. In the case of C27G U55A, the self-cleavage is reported as 0.142. In the case of G28A G68U, the self-cleavage is reported as 0.195. In the case of G28A G68C, the self-cleavage is reported as 0.268. Work on G28A C33G yielded a self-cleavage of 0.195. G28A C33A gave a self-cleavage of 0.18. Work on G28A C33U yielded a self-cleavage of 0.22. For C27G U62A, the self-cleavage was 0.122. With C27G U62G the self-cleavage was 0.241. Variant C27G U62C has a self-cleavage of 0.257. With C27G U43C the self-cleavage was 0.239. C27U G28C showed a self-cleavage of 0.218. For C27U G28U, the self-cleavage was 0.187. With G28U C63U the self-cleavage was 0.187. Work on G28U C63A yielded a self-cleavage of 0.189. Variant G28U C63G has a self-cleavage of 0.254. For C27U A40G, the self-cleavage was 0.192. C27U A40U gave a self-cleavage of 0.207. For G28A G58A, the self-cleavage was 0.189. G28A G58C showed a self-cleavage of 0.231. Variant G28A G58U has a self-cleavage of 0.2. In the case of G28C U38C, the self-cleavage is reported as 0.199. For C27U C63U, the self-cleavage was 0.17. For C27U U36A, the self-cleavage was 0.167. With C27U U36G the self-cleavage was 0.188. Work on C27U U53C yielded a self-cleavage of 0.169. With C27G G58C the self-cleavage was 0.231. Work on C27G G58U yielded a self-cleavage of 0.193. With C27U U46C the self-cleavage was 0.301. In the case of C27U U46G, the self-cleavage is reported as 0.372. With C27U U46A the self-cleavage was 0.567. In the case of G28A C54G, the self-cleavage is reported as 0.177. With G28A C54U the self-cleavage was 0.194. For C27G G37C, the self-cleavage was 0.162. C27G G65A gave a self-cleavage of 0.141. With G28C C39G the self-cleavage was 0.198. In the case of G28U C54A, the self-cleavage is reported as 0.144. G28U C54G showed a self-cleavage of 0.158. In the case of G28C C29U, the self-cleavage is reported as 0.137. In the case of G28C C29G, the self-cleavage is reported as 0.153. In the case of G28C C29A, the self-cleavage is reported as 0.144. G28U A59U showed a self-cleavage of 0.16. In the case of G28U A59G, the self-cleavage is reported as 0.23. Variant C27G G48A has a self-cleavage of 0.156. For G28C C45G, the self-cleavage was 0.208. G28C U62C gave a self-cleavage of 0.136. Variant G28C U62A has a self-cleavage of 0.194. G28C C57G gave a self-cleavage of 0.191. G28C C57U gave a self-cleavage of 0.23. In the case of G28C C57A, the self-cleavage is reported as 0.207. Work on G28C G68U yielded a self-cleavage of 0.221. For G28C G68A, the self-cleavage was 0.164. For G28A G31C, the self-cleavage was 0.208. For G28A U44C, the self-cleavage was 0.176. With G28A U44G the self-cleavage was 0.136. G28A U44A gave a self-cleavage of 0.195. Variant G28C U64G has a self-cleavage of 0.116. For G28C U64A, the self-cleavage was 0.222. For G28C C32G, the self-cleavage was 0.168. Work on G28C C32A yielded a self-cleavage of 0.181. For G28C C32U, the self-cleavage was 0.23. Work on G28U C57U yielded a self-cleavage of 0.213. For G28U C35G, the self-cleavage was 0.14. For G28U C35A, the self-cleavage was 0.172. Variant G28A A40G has a self-cleavage of 0.214. Work on G28A A40U yielded a self-cleavage of 0.167. In the case of G28C U61C, the self-cleavage is reported as 0.134. For C27U U62A, the self-cleavage was 0.217. C27U A60G showed a self-cleavage of 0.254. With C27U A60C the self-cleavage was 0.192. For C27G U46A, the self-cleavage was 0.162. For C27G U46G, the self-cleavage was 0.188. C27G U46C showed a self-cleavage of 0.181. C27U A51U showed a self-cleavage of 0.303. C27U A51C gave a self-cleavage of 0.259. For C27U A51G, the self-cleavage was 0.376. G28A C34A showed a self-cleavage of 0.218. Work on C27U U38A yielded a self-cleavage of 0.281. For C27U U38C, the self-cleavage was 0.268. In the case of C27U G47U, the self-cleavage is reported as 0.431. C27U G47C gave a self-cleavage of 0.436. C27G G68C showed a self-cleavage of 0.234. C27G G68U gave a self-cleavage of 0.309. In the case of G28U G31C, the self-cleavage is reported as 0.141. Work on G28U G31U yielded a self-cleavage of 0.171. Work on G28C G65C yielded a self-cleavage of 0.19. In the case of G28C G65A, the self-cleavage is reported as 0.161. For G28U C45A, the self-cleavage was 0.189.
